The text below walks through data of publication PMC2756145.

Substitutions are numbered along the chain they refer to.

One series addresses T1, Pot1pC (Schizosaccharomyces pombe, UniProt O13988 178-389).
T1 sequence: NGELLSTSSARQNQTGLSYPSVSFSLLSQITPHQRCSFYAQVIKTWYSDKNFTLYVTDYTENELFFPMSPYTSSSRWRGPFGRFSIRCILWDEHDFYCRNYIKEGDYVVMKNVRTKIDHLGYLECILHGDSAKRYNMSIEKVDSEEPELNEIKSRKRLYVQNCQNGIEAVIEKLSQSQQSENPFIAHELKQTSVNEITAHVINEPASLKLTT
The experiment in a line: EMSA.

In another series the target is T2, Pot1-DBD_Y115A (Schizosaccharomyces pombe, UniProt O13988 1-389, Y115A).
T2 sequence: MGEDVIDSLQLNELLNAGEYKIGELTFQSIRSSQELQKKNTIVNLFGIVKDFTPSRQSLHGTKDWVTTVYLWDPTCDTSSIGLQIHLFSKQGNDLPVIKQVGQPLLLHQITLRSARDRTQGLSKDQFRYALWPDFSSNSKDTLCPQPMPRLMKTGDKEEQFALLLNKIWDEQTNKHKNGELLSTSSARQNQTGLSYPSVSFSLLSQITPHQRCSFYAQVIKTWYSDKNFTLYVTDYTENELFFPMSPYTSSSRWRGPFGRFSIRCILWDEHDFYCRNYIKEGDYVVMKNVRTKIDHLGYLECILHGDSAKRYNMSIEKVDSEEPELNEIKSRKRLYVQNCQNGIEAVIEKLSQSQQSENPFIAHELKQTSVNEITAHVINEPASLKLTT
The experiment in a line: filter binding.

A further series addresses T3, Pot1-DBD_T62A (Schizosaccharomyces pombe, UniProt O13988 1-389, T62A).
T3 sequence: T2 sequence with T62A, A115Y
The experiment in a line: filter binding.

For a further series, the target named is T4, Pot1-DBD_L122A (Schizosaccharomyces pombe, UniProt O13988 1-389, L122A).
T4 sequence: T2 sequence with A115Y, L122A
The experiment in a line: filter binding.

The target in the next series is T5, Pot1-DBD_V97A (Schizosaccharomyces pombe, UniProt O13988 1-389, V97A).
T5 sequence: T2 sequence with V97A, A115Y
The experiment in a line: filter binding.

In the case of GGTTACGGTTAC (ssDNA) [12mer], the Kd in the series with Pot1pC is 700 ± 200 nM; with Pot1-DBD_Y115A it was 80 ± 4 nM; with Pot1-DBD_T62A, 90 ± 3 nM; in the series with Pot1-DBD_L122A, 90 ± 7 nM; with Pot1-DBD_V97A, 10 ± 1 nM.

One may read the Kd as the free concentration of one partner at which half of the binding sites on the other are occupied at equilibrium, for simple one-to-one binding.
